Results reported in patent publication US20260265348A1.

Target: recombinant HSV-2G glycoprotein B (gB) ectodomain (aa 22-724), trimeric (HSV-2 strain G)
Experiment: bio-layer interferometry (Octet), dilution series on HSV-2 recombinant gB

B1: HDIT102(H4), fully human IgG1 anti-HSV gB antibody (antibody, V domains shown)
VH: EVQLVQSGAEVKTPGASVRVSCKASGHTFRTFDINWVRQAAGQGLEWMGWMSPNSGNTGYARQFQGRVTMTRNISANTAYMELRGLRFDDTAVYYCARGPGSTGTTGSMDVWGQGTTVTVSS
VL: QAGLTQPPSVSVAPGKTARISCGGNNIGSKSVHWYQQKPGQAPVLVIYYDSDRPSGIPERFSGSNSGNTATLTISRVEAGDEADYYCQVWDSGSVVFGGGTKLTVLG
  Kd: < 1 pM
  koff: < 1e-07 s⁻¹
  kon: 727000 M⁻¹ s⁻¹
